According to patent publication US20080207523:

System: Tenascin-C (human)
Assay: competition

(TTA1-MAG2)2P5 aptamer dimer (22A) was tested, and the EC50 (two TTA1-MAG2 joined via bis-maleimide peptide linker P5 (bAla-Ser-Ser-Ser-Dpr-Met-Cys-Ser-Ser-Ser-Lys), competition binding assay against the lead compound) was 3.6 nM.

With “TTA1-MAG2 aptamer monomer (2A, lead compound)” the IC50 (MAG2 conjugate, monomer comparator) was 5.6 nM.
